Reference: paper PMC4841774 (eLife, 2016)
One block for each molecule: values may come before it.

Tests used:
[1] = target: MTA1-A (residues 162–354) (human) (UniProt Q13330); experiment: SEC-MALS; gel-filtrated co-expressed complexes at 1 mg/ml reapplied to Superdex S200; Optilab T-rEX and DAWN HELEOS detectors
[2] = target: MTA1-B (residues 162–546) (human) (UniProt Q13330); experiment: affinity purification with mass spectrometry; Flag-tagged MTA1 fragments co-transfected with HDAC1 in HEK293F; complexes purified on FLAG resin; endogenous RBBP4/7 identified by peptide mass spectrometry; ratio by densitometry of the SDS-PAGE gel (ImageJ)
[3] = target: MTA1-C (residues 162–715) (human) (UniProt Q13330); experiment: as above
[4] = target: T1, HDAC1 (residues 1–482), untagged (human, UniProt Q13547 1-482); experiment: SAXS; purified co-expressed complexes, 1 to 5 mg/ml, 25°C, Diamond B21; ab initio envelopes; details: both partners purified
T1 construct: Histone deacetylase 1 (HDAC1), residues 1-482; source: HEK293F, co-transfected with MTA1 fragments, co-purified (FLAG resin through MTA1, TEV elution, Superdex S200)
T1 sequence (Q13547 whole entry, the tested form may be a part): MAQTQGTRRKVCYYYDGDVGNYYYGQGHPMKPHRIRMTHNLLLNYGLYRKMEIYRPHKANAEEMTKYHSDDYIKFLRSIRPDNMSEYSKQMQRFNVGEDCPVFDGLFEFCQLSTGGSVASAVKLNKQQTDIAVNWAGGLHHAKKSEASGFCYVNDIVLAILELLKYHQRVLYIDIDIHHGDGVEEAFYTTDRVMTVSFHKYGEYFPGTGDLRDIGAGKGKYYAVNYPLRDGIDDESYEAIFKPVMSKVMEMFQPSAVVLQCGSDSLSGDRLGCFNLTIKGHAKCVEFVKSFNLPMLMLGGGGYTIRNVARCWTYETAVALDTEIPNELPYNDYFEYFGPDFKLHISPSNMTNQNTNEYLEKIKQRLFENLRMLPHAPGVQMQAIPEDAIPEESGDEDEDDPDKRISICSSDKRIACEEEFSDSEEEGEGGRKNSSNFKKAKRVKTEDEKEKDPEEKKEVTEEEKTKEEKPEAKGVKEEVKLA

[5] = target: T2, RBBP4 (residues 1–425), untagged (human, UniProt Q09028 1-425); experiment: SEC-MALS; gel-filtrated co-expressed complexes at 1 mg/ml reapplied to Superdex S200; Optilab T-rEX and DAWN HELEOS detectors; details: both partners purified
T2 construct: also called RbAp48; source: HEK293F, co-transfected with MTA1 fragments, co-purified (FLAG resin through MTA1, TEV elution, Superdex S200)
T2 sequence (Q09028 whole entry, the tested form may be a part): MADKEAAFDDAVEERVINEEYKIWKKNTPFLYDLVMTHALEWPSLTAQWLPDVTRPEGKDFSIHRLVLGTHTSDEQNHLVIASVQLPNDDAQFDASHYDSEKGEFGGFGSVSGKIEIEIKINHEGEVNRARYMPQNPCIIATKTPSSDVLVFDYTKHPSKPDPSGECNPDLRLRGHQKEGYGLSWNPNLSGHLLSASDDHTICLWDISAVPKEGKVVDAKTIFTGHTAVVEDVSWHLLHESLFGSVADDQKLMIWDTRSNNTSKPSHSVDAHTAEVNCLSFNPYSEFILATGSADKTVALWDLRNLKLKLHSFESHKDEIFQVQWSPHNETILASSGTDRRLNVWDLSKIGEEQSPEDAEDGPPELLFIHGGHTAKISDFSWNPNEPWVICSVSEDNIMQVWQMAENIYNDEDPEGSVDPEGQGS

[6] = target: the molecule itself; experiment: as above

stoichiometry N (copies in the complex) [1]: 2
Molecule: MTA1-A (residues 162–354) (from UniProt Q13330 162-354) (domain or fragment)

ratio HDAC1:RBBP4/7 (gel densitometry) (RBBP4/7 per HDAC1) [2]: 1 | ratio HDAC1:RBBP4/7 (gel densitometry) (RBBP4/7 per HDAC1) [3]: 1.5
Molecule: endogenous RBBP4/7 (from UniProt Q09028 1-425) (natural protein)

binding result [4]: binds | binding result [5]: binds
B1: MTA1-B (residues 162–546) (domain or fragment, human, UniProt Q13330 162-546, looked up)
chain: ADKGEIRVGNRYQADITDLLKEGEEDGRDQSRLETQVWEAHNPLTDKQIDQFLVVARSVGTFARALDCSSSVRQPSLHMSAAAASRDITLFHAMDTLHKNIYDISKAISALVPQGGPVLCRDEMEEWSASEANLFEEALEKYGKDFTDIQQDFLPWKSLTSIIEYYYMWKTTDRYVQQKRLKAAEAESKLKQVYIPNYNKPNPNQISVNNVKAGVVNGTGAPGQSPGAGRACESCYTTQSYQWYSWGPPNMQCRLCASCWTYWKKYGGLKMPTRLDGERPGPNRSNMSPHGLPARSSGSPKFAMKTRQAFYLHTTKLTRIARRLCREILRPWHAARHPYLPINSAAIKAECTARLPEASQSPLVLKQAVRKPLEAVLRYLETHPR
notes: Captured on FLAG resin by the tag, then released with TEV; Two copies in the dimeric MTA1-B:HDAC1:RBBP4 complex by MALS; not shown: His10, N-terminal, cleaved; Flag3, N-terminal, cleaved
stoichiometry N [6]: 2 copies in the complex
